Here are results for 39 substances from patent publication US20220273789A1.

The experiment deals with human IgG (human). The experiment is described as follows: BLI Octet, construct on Ni-NTA sensor, hIgG in solution. Background: In BLI a coated tip is dipped into the sample, and binding shifts an interference pattern.
As a reminder, the Kd is the concentration at which binding is half-saturated. The low end stands for tighter binding, the high end for weaker binding. As usually defined, the koff is the first-order rate constant of dissociation. Low values mean slow dissociation, high ones fast dissociation. Usually kon stands for the second-order rate constant of association. A higher kon goes with faster complex formation. “HSV2-gE_P317F_gI (from UniProt P89475 21-416; P06764 21-256) (receptor)”: the Kd was 8770 nM, the Response (nm) worked out at 0.143 nm, the koff was determined as 0.00166 s⁻¹ and the kon is 189 M⁻¹ s⁻¹.

Turning to “HSV2-gE_H245S_gI (from UniProt P89475 21-416; P06764 21-256) (receptor)”, the Kd worked out at 866 nM, the Response (nm) was determined as 0.46 nm, the koff was 0.00658 s⁻¹ and the kon was found to be 7600 M⁻¹ s⁻¹.

Take “HSV2-gE_R320I_gI (from UniProt P89475 21-416; P06764 21-256) (receptor)”: the Kd was 406 nM, the Response (nm) stood at 0.622 nm, the koff is 0.00438 s⁻¹ and the kon was 10800 M⁻¹ s⁻¹.

The substance “HSV2-gE_H245G P319G_gI (from UniProt P89475 21-416; P06764 21-256) (receptor)” had a Kd of 2010 nM, a Response (nm) of 0.157 nm, an off-rate constant (koff) of 0.00357 s⁻¹ and a kon of 1780 M⁻¹ s⁻¹.

In turn, “HSV2-gE_A246W P317S_gI (from UniProt P89475 21-416; P06764 21-256) (receptor)” gave a Kd of less than 0.001 nM, a Response (nm) of 0.121 nm, a koff of less than 1e-07 s⁻¹ and a kon of 3600 M⁻¹ s⁻¹.

Substance “HSV2-gE_F322N_gI (from UniProt P89475 21-416; P06764 21-256) (receptor)” came in with a Kd of 239 nM, a Response (nm) of 0.73 nm, a koff of 0.00313 s⁻¹ and a kon of 13100 M⁻¹ s⁻¹.

Turning to “HSV2-gE_V340M_gI (from UniProt P89475 21-416; P06764 21-256) (receptor)”, the dissociation constant Kd amounted to 278 nM, the Response (nm) was found to be 0.621 nm, the koff was 0.00399 s⁻¹ and the kon amounted to 14300 M⁻¹ s⁻¹.

Consider “HSV2-gE_A248G V340M_gI (from UniProt P89475 21-416; P06764 21-256) (receptor)”, for which the dissociation constant Kd was found to be 571 nM, the Response (nm) was 0.452 nm, the koff was determined as 0.0052 s⁻¹ and the kon stood at 9110 M⁻¹ s⁻¹.

For “HSV2-gE_S338E_gI (from UniProt P89475 21-416; P06764 21-256) (receptor)”, the Kd came out at 348 nM, the Response (nm) worked out at 0.616 nm, the koff is 0.0043 s⁻¹ and the kon is 12300 M⁻¹ s⁻¹.

“HSV2-gE_R320M_gI (from UniProt P89475 21-416; P06764 21-256) (receptor)” had a Kd of 336 nM, a Response (nm) of 0.722 nm, a koff of 0.00462 s⁻¹ and an association rate constant (kon) of 13700 M⁻¹ s⁻¹.

With “HSV2-gE_H245I_gI (from UniProt P89475 21-416; P06764 21-256) (receptor)”, the Kd worked out at 183 nM, the Response (nm) came out at 1.02 nm, the koff is 0.00301 s⁻¹ and the kon was 16500 M⁻¹ s⁻¹.

“HSV2-gE_H245G_gI (from UniProt P89475 21-416; P06764 21-256) (receptor)” registered a Kd of 1630 nM, a Response (nm) of 0.424 nm, a koff of 0.00669 s⁻¹ and a kon of 4110 M⁻¹ s⁻¹.

In turn, “HSV2-gE_R320L_gI (from UniProt P89475 21-416; P06764 21-256) (receptor)” showed a Kd of 291 nM, a Response (nm) of 0.785 nm, a koff of 0.00389 s⁻¹ and a kon of 13400 M⁻¹ s⁻¹.

Regarding “HSV2-gE_H245V_gI (from UniProt P89475 21-416; P06764 21-256) (receptor)”, the Kd was 486 nM, the Response (nm) came to 0.745 nm, the koff turned out to be 0.00573 s⁻¹ and the kon was found to be 11800 M⁻¹ s⁻¹.

As to “HSV2-gE_R314K_gI (from UniProt P89475 21-416; P06764 21-256) (receptor)”, the Kd came out at 583 nM, the Response (nm) amounted to 0.461 nm, the koff is 0.00549 s⁻¹ and the kon turned out to be 9420 M⁻¹ s⁻¹.

For the substance “HSV2-gE_A248K V340M_gI (from UniProt P89475 21-416; P06764 21-256) (receptor)”, the Kd was less than 0.001 nM, the Response (nm) worked out at 0.0007 nm, the koff is less than 1e-07 s⁻¹ and the kon stood at 237 M⁻¹ s⁻¹.

Turning to “HSV2-gE_P317I_gI (from UniProt P89475 21-416; P06764 21-256) (receptor)”, the Kd was 1000 nM, the Response (nm) amounted to 0.243 nm, the koff amounted to 0.00382 s⁻¹ and the kon was determined as 3810 M⁻¹ s⁻¹.

On to “HSV2-gE_A248T F322P_gI (from UniProt P89475 21-416; P06764 21-256) (receptor)”, for which the Kd is 1490 nM, the Response (nm) came to 0.2 nm, the koff came to 0.00426 s⁻¹ and the kon came out at 2870 M⁻¹ s⁻¹.

In turn, “HSV2-gE_F322P_gI (from UniProt P89475 21-416; P06764 21-256) (receptor)” showed a Kd of 160 nM, a Response (nm) of 0.807 nm, a koff of 0.00223 s⁻¹ and a kon of 13900 M⁻¹ s⁻¹.

“HSV2-gE_R314S_gI (from UniProt P89475 21-416; P06764 21-256) (receptor)” had a Kd of 406 nM, a Response (nm) of 0.585 nm, a koff of 0.00515 s⁻¹ and a kon of 12700 M⁻¹ s⁻¹.

With “HSV2-gE_F322A_gI (from UniProt P89475 21-416; P06764 21-256) (receptor)”, the Kd was determined as 167 nM, the Response (nm) is 0.86 nm, the koff was determined as 0.00273 s⁻¹ and the kon is 16400 M⁻¹ s⁻¹.

On to “HSV2-gE_A248K_gI (from UniProt P89475 21-416; P06764 21-256) (receptor)”, for which the Kd was 450 nM, the Response (nm) worked out at 0.477 nm, the koff was 0.00499 s⁻¹ and the kon came out at 11100 M⁻¹ s⁻¹.

“HSV2-gE_P318R_gI (from UniProt P89475 21-416; P06764 21-256) (receptor)” returned a Kd of 794 nM, a Response (nm) of 0.151 nm, a koff of 0.000756 s⁻¹ and a kon of 952 M⁻¹ s⁻¹.

In the case of “HSV2-gE_A248T V340R_gI (from UniProt P89475 21-416; P06764 21-256) (receptor)”, the Kd was less than 0.001 nM, the Response (nm) worked out at 0.183 nm, the koff is less than 1e-07 s⁻¹ and the kon turned out to be 5000 M⁻¹ s⁻¹.

As to “HSV2-gE_A248T F322I_gI (from UniProt P89475 21-416; P06764 21-256) (receptor)”, the Kd stood at 8850 nM, the Response (nm) worked out at 0.184 nm, the koff worked out at 0.00486 s⁻¹ and the kon was found to be 549 M⁻¹ s⁻¹.

For “HSV2-gE_V340Q_gI (from UniProt P89475 21-416; P06764 21-256) (receptor)”, the Kd amounted to 239 nM, the Response (nm) was 0.32 nm, the koff came to 0.00218 s⁻¹ and the kon worked out at 9090 M⁻¹ s⁻¹.

For the substance “HSV2-gE_S338G_gI (from UniProt P89475 21-416; P06764 21-256) (receptor)”, the Kd amounted to 339 nM, the Response (nm) came to 0.562 nm, the koff is 0.00438 s⁻¹ and the kon worked out at 12900 M⁻¹ s⁻¹.

“HSV2-gE_R314Q_gI (from UniProt P89475 21-416; P06764 21-256) (receptor)” showed a Kd of 498 nM, a Response (nm) of 0.568 nm, a koff of 0.00535 s⁻¹ and a kon of 10800 M⁻¹ s⁻¹.

In turn, “HSV2-gE_A248G F322P_gI (from UniProt P89475 21-416; P06764 21-256) (receptor)” showed a Kd of 320 nM, a Response (nm) of 0.497 nm, a koff of 0.00367 s⁻¹ and a kon of 11500 M⁻¹ s⁻¹.

Turning to “HSV2-gE_R320V_gI (from UniProt P89475 21-416; P06764 21-256) (receptor)”, the Kd is 469 nM, the Response (nm) came out at 0.52 nm, the koff worked out at 0.00425 s⁻¹ and the kon was determined as 9060 M⁻¹ s⁻¹.

On to “HSV2-gE_R314L_gI (from UniProt P89475 21-416; P06764 21-256) (receptor)”, for which the Kd was determined as 702 nM, the Response (nm) amounted to 0.442 nm, the koff came to 0.00521 s⁻¹ and the kon was determined as 7430 M⁻¹ s⁻¹.

Substance “HSV2-gE_P317G_gI (from UniProt P89475 21-416; P06764 21-256) (receptor)” displayed an equilibrium dissociation constant (Kd) of 555 nM, a Response (nm) of 0.338 nm, a koff of 0.00429 s⁻¹ and a kon of 7740 M⁻¹ s⁻¹.

Substance “HSV2-gE_R314Y_gI (from UniProt P89475 21-416; P06764 21-256) (receptor)” registered a Kd of 600 nM, a Response (nm) of 0.385 nm, a koff of 0.00441 s⁻¹ and a kon of 7350 M⁻¹ s⁻¹.

“HSV2-gE_R320A_gI (from UniProt P89475 21-416; P06764 21-256) (receptor)” had a Kd of 1500 nM, a Response (nm) of 0.295 nm, a koff of 0.00505 s⁻¹ and a kon of 3360 M⁻¹ s⁻¹.

Consider “HSV2-gE_R314A_gI (from UniProt P89475 21-416; P06764 21-256) (receptor)”, for which the Kd was determined as 468 nM, the Response (nm) was determined as 0.629 nm, the koff was 0.00557 s⁻¹ and the kon was determined as 11900 M⁻¹ s⁻¹.

For “HSV2-gE_A248K F322P_gI (from UniProt P89475 21-416; P06764 21-256) (receptor)”, the Kd was 498 nM, the Response (nm) worked out at 0.427 nm, the koff was determined as 0.00461 s⁻¹ and the kon amounted to 9250 M⁻¹ s⁻¹.

Consider “HSV2-gE_P317N_gI (from UniProt P89475 21-416; P06764 21-256) (receptor)”, for which the Kd amounted to 500 nM, the Response (nm) amounted to 0.381 nm, the koff was 0.00459 s⁻¹ and the kon stood at 9180 M⁻¹ s⁻¹.

As to “HSV2-gE_A248G F322A_gI (from UniProt P89475 21-416; P06764 21-256) (receptor)”, the Kd was found to be 270 nM, the Response (nm) worked out at 0.559 nm, the koff came out at 0.00352 s⁻¹ and the kon stood at 13100 M⁻¹ s⁻¹.

Regarding “HSV2-gE_F322I_gI (from UniProt P89475 21-416; P06764 21-256) (receptor)”, the Kd is 302 nM, the Response (nm) stood at 0.639 nm, the koff amounted to 0.00363 s⁻¹ and the kon amounted to 12000 M⁻¹ s⁻¹.
